The text below walks through data of US20250215104A1.

Assay [1] addresses T1, human suPAR (hsuPAR) recombinant protein (human), Q03405. Briefly: BLI, with WAb0014 against without. The note with it: remark: other sources report otherwise.
The target in assay [2] is T1, human suPAR (hsuPAR) recombinant …. Put plainly: BLI (Octet Red96E), hsuPAR 2 µg/mL on streptavidin sensor, vitronectin as analyte.
Assay [3] has the same target. Briefly: BLI (Octet Red96E), WAb0014 on AHC sensor, hsuPAR captured, vitronectin as analyte (in the presence of WAb0014).

T1 sequence (Q03405 23-303): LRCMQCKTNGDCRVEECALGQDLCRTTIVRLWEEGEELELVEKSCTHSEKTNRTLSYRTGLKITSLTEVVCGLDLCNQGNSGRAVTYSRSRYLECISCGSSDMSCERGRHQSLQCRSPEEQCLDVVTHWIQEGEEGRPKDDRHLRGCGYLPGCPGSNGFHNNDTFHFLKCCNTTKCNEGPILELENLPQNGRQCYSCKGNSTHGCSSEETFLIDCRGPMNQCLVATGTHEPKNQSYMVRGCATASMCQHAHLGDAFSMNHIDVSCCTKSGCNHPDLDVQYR

B1: vitronectin, P04004 20-478 (ligand)
chain: DQESCKGRCTEGFNVDKKCQCDELCSYYQSCCTDYTAECKPQVTRGDVFTMPEDEYTVYDDGEEKNNATVHEQVGGPSLTSDLQAQSKGNPEQTPVLKPEEEAPAPEVGASKPEGIDSRPETLHPGRPQPPAEEELCSGKPFDAFTDLKNGSLFAFRGQYCYELDEKAVRPGYPKLIRDVWGIEGPIDAAFTRINCQGKTYLFKGSQYWRFEDGVLDPDYPRNISDGFDGIPDNVDAALALPAHSYSGRERVYFFKGKQYWEYQFQHQPSQEECEGSSLSAVFEHFAMMQRDSWEDIFELLFWGRTSAGTRQPQFISRDWHGVPGQVDAAMAGRIYISGMAPRPSLAKKQRFRHRNRKGYRSQRGHSRGRNQNSRRPSRATWLSLFSSEESNLGANNYDDYRMDWLVPATCEPIQSVFFFSGDKYYRVNLRTRRVDTVDPPYPRSIAQYWLGCPAPGHL
Take B1: the fold reduction in affinity in the presence of WAb0014 in assay [1] was found to be 5 fold. The values for the Kd in assay [2] and in assay [3] were 13.5 nM and 62.2 nM, respectively.
